Data taken from US20250333514A1 (CDR LIFE, published 2025).
Residue numbers refer to the chain shown, from its start.

B1: M3076 (bispecific antibody)
heavy: EVQLVESGGGLVQPGGSLRLSCAASGFTFSTYAMNWVRQAPGKGLEWVGRIRSKYNNYATYYADSVKGRFTISRDDSKNTLYLQMNSLRAEDTAVYYCVRHGNFGDSYVSWFAYWGQGTLVTVSSASTKGPSVFPLAPSSKSTSGGTAALGCLVKDYFPEPVTVSWNSGALTSGVHTFPAVLQSSGLYSLSSVVTVPSSSLGTQTYICNVNHKPSNTKVDKKVEPKSCGGGGSDIQMTQSPSSLSASVGDRVTITCRSSQSVYNNLLGWYQQKPGKAPKLLIYSASTLASGVPSRFSGSGSGTDFTLTISSLQPEDFATYYCQGTYYNGDWYYPFGCGTKVEIKGGGGSGGGGSGGGGSGGGGSQVQLVESGGGSVQPGRSLRLSCAASGFDFSTYGVSWVRQAPGKCLEWIGYIDPVYGSTHYADSVKGRFTISRDNSKNTLYLQMNSLRAEDTASYYCVRDLYAGSSGYYMIYSLWGQGTSVTVSS
light: QAVVTQEPSLTVSPGGTVTLTCGSSTGAVTTSNYANWVQQKPGKSPRGLIGGTNKRAPGVPARFSGSLLGGKAALTISGAQPEDEADYYCALWYSNHWVFGGGTKLTVLGQPKAAPSVTLFPPSSEELQANKATLVCLISDFYPGAVTVAWKADSSPVKAGVETTTPSKQSNNKYAASSYLSLTPEQWKSHRSYSCQVTHEGSTVEKTVAPTECS
notes: Humanized variant of M2638, monovalent Fab-scFv; bivalent equivalent is M3167
B2: M3287 (bispecific antibody)
heavy: B1 heavy with F317S, N328T, M473V
light: B1 light
notes: Humanized variant of M2638, monovalent Fab-scFv; bivalent equivalent is M3292

Experiments:
[1] = molecular target: T1, HLA-A*02:01/PRAME antigen (recombinant, … on HLA-A*02:01) (human, Complex biotinylated for SPR capture; site of biotin and any tag not stated, not in the letters.); assay: SPR (Biacore 8K), pMHC captured, Fab-scFv analyte
T1 construct: also called PRAME target; pMHC
Experimental: (§1) Recombinantly produced hits in Fab-scFv format, as described in Example 4, were evaluated for their ability to bind HLA-A*02:01/PRAME antigen. Binding characterization was performed by surface plasmon resonance (SPR) using a Biacore™ 8k (Cytiva) device. Briefly, 3000 RU of Biotin CAPture reagent (Cytiva) was immobilized on a Series S Sensor Chip CAP (Cytiva) and the biotinylated ligand HLA-A*02:01/PRAME (SEQ ID NO: 68) was diluted in HPS-EP+ running buffer (TEKNOVA) and captured for 300 s at a flow rate of 2 μL/min at flow cell 2 resulting in a ligand capture level of >100 RU. Subsequently, at least three consecutive analyte injections were performed at suitable concentrations applying the single-cycle-kinetics mode at a flow rate of 30 μL/min with an association time of 90 s and the dissociation time set to >400 s. The chip surface was regenerated according to the manufacturer's instructions. After reference flow cell signal and blank injections subtraction, the data was fit to a 1:1 Langmuir binding model to determine the association rate constant kₐ and dissociation rate constant kd and calculate the equilibrium dissociation constant KD (kd/kₐ), also denoted as affinity, using the Biacore™ Insight Evaluation software.
(§2) The molecular recognition profile of monovalent (Fab-scFv) antigen binding molecules M3076 and M3287 for HLA-A*02:01/PRAME binding (equivalent bivalent (Fab-(scFv)₂) antigen binding molecules are M3167 and M3292, respectively) were determined by SPR measurements with HLA-A*02:01 complexes loaded with PRAME peptide or peptides containing a single amino acid substitution to alanine, arginine or aspartic acid. The kinetic parameters for each HLA-A*02:01 complex loaded with a peptide was determined by SPR, according to the previously described method in Example 5.

[2] = molecular target: HLA-A*02:01 loaded with PRAME peptide S1A (human, Complex captured as in Example 5 (biotinylated ligand); biotin site or tag not stated, not in the letters.); assay: SPR (Biacore 8K), pMHC captured, Fab-scFv analyte
Experimental: as §1, §2

[3] = molecular target: HLA-A*02:01 loaded with PRAME peptide L2A (human, Complex captured as in Example 5 (biotinylated ligand); biotin site or tag not stated, not in the letters.); assay: SPR (Biacore 8K), pMHC captured, Fab-scFv analyte
Experimental: as §1, §2

[4] = molecular target: HLA-A*02:01 loaded with PRAME peptide H5A (human, Complex captured as in Example 5 (biotinylated ligand); biotin site or tag not stated, not in the letters.); assay: SPR (Biacore 8K), pMHC captured, Fab-scFv analyte
Experimental: as §1, §2

[5] = molecular target: HLA-A*02:01 loaded with PRAME peptide L6A (human, Complex captured as in Example 5 (biotinylated ligand); biotin site or tag not stated, not in the letters.); assay: SPR (Biacore 8K), pMHC captured, Fab-scFv analyte
Experimental: as §1, §2

[6] = molecular target: HLA-A*02:01 loaded with PRAME peptide G8A (human, Non-covalent three-chain complex; biotinylated for capture on the chip, site or tag of biotinylation not stated.); assay: SPR (Biacore 8K), pMHC captured, Fab-scFv analyte
Experimental: as §1, §2

[7] = molecular target: T1, HLA-A*02:01/PRAME antigen (recombinant, …); assay: SPR (Biacore 8K), pMHC captured, Fab-scFv analyte; remark: listed apart in the source
Experimental: as §1, §2

[8] = molecular target: HLA-A*02:01 loaded with PRAME peptide S1R (human, Non-covalent three-chain complex; biotinylated for capture on the chip, site or tag of biotinylation not stated.); assay: SPR (Biacore 8K), pMHC captured, Fab-scFv analyte
Experimental: as §1, §2

[9] = molecular target: HLA-A*02:01 loaded with PRAME peptide L2R (human, Non-covalent three-chain complex; biotinylated for capture on the chip, site or tag of biotinylation not stated.); assay: SPR (Biacore 8K), pMHC captured, Fab-scFv analyte
Experimental: as §1, §2

[10] = molecular target: HLA-A*02:01 loaded with PRAME peptide L3R (human, Non-covalent three-chain complex; biotinylated for capture on the chip, site or tag of biotinylation not stated.); assay: SPR (Biacore 8K), pMHC captured, Fab-scFv analyte
Experimental: as §1, §2

[11] = molecular target: HLA-A*02:01 loaded with PRAME peptide Q4R (human, Non-covalent three-chain complex; biotinylated for capture on the chip, site or tag of biotinylation not stated.); assay: SPR (Biacore 8K), pMHC captured, Fab-scFv analyte
Experimental: as §1, §2

[12] = molecular target: HLA-A*02:01 loaded with PRAME peptide H5R (human, Non-covalent three-chain complex; biotinylated for capture on the chip, site or tag of biotinylation not stated.); assay: SPR (Biacore 8K), pMHC captured, Fab-scFv analyte
Experimental: as §1, §2

[13] = molecular target: HLA-A*02:01 loaded with PRAME peptide L6R (human, Non-covalent three-chain complex; biotinylated for capture on the chip, site or tag of biotinylation not stated.); assay: SPR (Biacore 8K), pMHC captured, Fab-scFv analyte
Experimental: as §1, §2

[14] = molecular target: HLA-A*02:01 loaded with PRAME peptide I7R (human, pMHC ligand was biotinylated for capture (Example 5); site or tag of biotinylation not disclosed); assay: SPR (Biacore 8K), pMHC captured, Fab-scFv analyte
Experimental: as §1, §2

[15] = molecular target: HLA-A*02:01 loaded with PRAME peptide G8R (human, pMHC ligand was biotinylated for capture (Example 5); site or tag of biotinylation not disclosed); assay: SPR (Biacore 8K), pMHC captured, Fab-scFv analyte
Experimental: as §1, §2

[16] = molecular target: HLA-A*02:01 loaded with PRAME peptide L9R (human, pMHC ligand was biotinylated for capture (Example 5); site or tag of biotinylation not disclosed); assay: SPR (Biacore 8K), pMHC captured, Fab-scFv analyte
Experimental: as §1, §2

[17] = molecular target: T1, HLA-A*02:01/PRAME antigen (recombinant, …); assay: SPR (Biacore 8K), biotinylated pMHC captured, Fab-scFv analyte, single-cycle kinetics, 1:1 fit
Experimental: as §1

Binder	Kd [1]	Kd [2]	Kd [3]	Kd [4]	Kd [5]	Kd [6]	Kd [7]	Kd [8]	Kd [9]	Kd [10]	Kd [11]	Kd [12]	binding result [13]	Kd [14]	binding result [15]	Kd [16]	Kd [17]	binding result [12]
B1	0.08 nM	0.09 nM	0.07 nM	3 nM	15 nM	0.77 nM	0.08 nM	0.08 nM	0.04 nM	1 nM	0.08 nM	93 nM	no binding	18 nM	no binding	1.4 nM	0.07 nM	
B2	0.57 nM	1.1 nM	0.62 nM	16 nM	67 nM	9.8 nM	0.57 nM	0.57 nM	0.31 nM	9.2 nM	0.49 nM		no binding	83 nM	no binding	6.1 nM	0.57 nM	no binding
